{
  "source": "paper PMC4562469",
  "about": "(Science translational medicine, 2014)",
  "binders": {"B1": {"name": "mAb 2D5 (anti-CD4 monoclonal antibody) (antibody, V domains shown)", "VH": "QVKLQQSGPELKKPGETVKISCKASGYTFTDYSMHWVKQAPGKGLKWLGRINTETGEAKYVDDFMGHLAFSLETSASTAYLQINNLKNEDTATYFCARYDGYSWDAMDYWGQGTSVIVSS", "VL": "DIMLTQSPASLTVSLGQRATMSCRASQSVSTSRYSYMHWYQEKAGQPPQLLIKYASNLESGVPARFSGSGSGTDFTLNIHPVEAEDTATYYCQHSWEIPYTFGGGTKLEIK"}},
  "key": {"[1]": {"target": "recombinant soluble rhesus CD4 (Macaca mulatta (rhesus macaque), UniProt P16003)", "sequence (P16003 26-396)": "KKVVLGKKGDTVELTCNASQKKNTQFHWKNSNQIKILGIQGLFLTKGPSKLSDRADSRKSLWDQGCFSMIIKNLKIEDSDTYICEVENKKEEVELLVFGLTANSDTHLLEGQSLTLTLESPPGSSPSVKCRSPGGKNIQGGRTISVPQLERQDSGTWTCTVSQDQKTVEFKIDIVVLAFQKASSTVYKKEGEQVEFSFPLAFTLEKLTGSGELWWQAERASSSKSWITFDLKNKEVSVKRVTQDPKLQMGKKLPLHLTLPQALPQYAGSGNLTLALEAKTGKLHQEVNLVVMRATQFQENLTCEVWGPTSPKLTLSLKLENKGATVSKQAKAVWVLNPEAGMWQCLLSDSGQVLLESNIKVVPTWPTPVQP", "test": "ELISA"}, "[2]": {"target": "recombinant soluble human CD4 (human, UniProt P01730)", "test": "ELISA"}},
  "data": [
    {"binder": "B1", "values": [
      {"measurement": "binding result", "setting": "[1]", "result": "binds"},
      {"measurement": "binding result", "setting": "[2]", "result": "binds"}
    ]}
  ]
}
